# Experimental data as given in patent publication US7384773.
# Biological target: recombinant soluble human beta secretase expressed in CHO-K1 cells (Hu_Asp-2LΔTM(His)6), not treated with HIV protease (UniProt P56817)
substance,measurement,value
HIV-1 protease,cleavage of the F39-V40 bond (N-terminal sequence analysis),nearly 100% cleavage of the F^39-V^40 bond occurred
